{
  "source": "paper PMC4505944",
  "about": "“The THERMOSENSITIVE MALE STERILE 1 Interacts with the BiPs via DnaJ Domain and Stimulates Their ATPase Enzyme Activities in Arabidopsis” (PLoS ONE, 2015)",
  "key": {"[1]": {"molecular_target": "T1, BiP3 without signal peptide, His-tagged (Arabidopsis thaliana, UniProt Q8H1B3 36-675)", "T1 construct": "full-length CDS without the signal peptide; Cloned into pET30a(+) (EcoRI/XhoI); further vector-derived residues between the tag and BiP3 are likely; also called BiP3-His; source: E. coli BL21, purified, dialyzed; not shown: His6, N-terminal, kept", "T1 sequence (Q8H1B3 36-675)": "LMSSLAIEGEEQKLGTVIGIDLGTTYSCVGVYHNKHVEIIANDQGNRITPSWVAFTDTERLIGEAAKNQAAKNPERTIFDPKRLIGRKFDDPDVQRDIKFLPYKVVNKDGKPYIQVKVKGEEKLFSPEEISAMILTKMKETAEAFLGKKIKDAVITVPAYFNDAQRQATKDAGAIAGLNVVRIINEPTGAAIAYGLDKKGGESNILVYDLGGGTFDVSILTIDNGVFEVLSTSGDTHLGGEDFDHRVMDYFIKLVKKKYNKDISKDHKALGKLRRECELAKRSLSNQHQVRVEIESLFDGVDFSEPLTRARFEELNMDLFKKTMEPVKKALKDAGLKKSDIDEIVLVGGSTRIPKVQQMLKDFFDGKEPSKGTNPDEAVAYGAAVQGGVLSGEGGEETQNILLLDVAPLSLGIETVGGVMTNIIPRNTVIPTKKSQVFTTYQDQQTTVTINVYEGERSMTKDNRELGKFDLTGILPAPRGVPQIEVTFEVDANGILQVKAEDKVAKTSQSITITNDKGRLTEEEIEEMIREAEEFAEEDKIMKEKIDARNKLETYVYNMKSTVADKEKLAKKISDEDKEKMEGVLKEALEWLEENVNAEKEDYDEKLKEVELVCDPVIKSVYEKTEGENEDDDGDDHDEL", "test": "pull-down; 30 μg GST fusion or GST on Glutathione Sepharose 4B beads; 30 μg purified BiP1 or BiP3 with 1 mM ATP in 1 mL binding buffer (20 mM Hepes pH 6.8, 100 mM KCl, 5 mM MgCl2, 0.1% NP-40, 2% glycerol, 1 mM DTT, 1 mM EDTA), 4°C, 2 h; anti-His blot", "conditions": "both partners purified"}, "[2]": {"molecular_target": "T2, BiP1 without signal peptide, His-tagged (Arabidopsis thaliana, UniProt Q9LKR3 28-669)", "T2 construct": "full-length CDS without the signal peptide; Cloned into pET30a(+) (EcoRI/XhoI); further vector-derived residues between the tag and BiP1 are likely; also called BiP1-His; source: E. coli BL21, purified, dialyzed; not shown: His6, N-terminal, kept", "T2 sequence (Q9LKR3 28-669)": "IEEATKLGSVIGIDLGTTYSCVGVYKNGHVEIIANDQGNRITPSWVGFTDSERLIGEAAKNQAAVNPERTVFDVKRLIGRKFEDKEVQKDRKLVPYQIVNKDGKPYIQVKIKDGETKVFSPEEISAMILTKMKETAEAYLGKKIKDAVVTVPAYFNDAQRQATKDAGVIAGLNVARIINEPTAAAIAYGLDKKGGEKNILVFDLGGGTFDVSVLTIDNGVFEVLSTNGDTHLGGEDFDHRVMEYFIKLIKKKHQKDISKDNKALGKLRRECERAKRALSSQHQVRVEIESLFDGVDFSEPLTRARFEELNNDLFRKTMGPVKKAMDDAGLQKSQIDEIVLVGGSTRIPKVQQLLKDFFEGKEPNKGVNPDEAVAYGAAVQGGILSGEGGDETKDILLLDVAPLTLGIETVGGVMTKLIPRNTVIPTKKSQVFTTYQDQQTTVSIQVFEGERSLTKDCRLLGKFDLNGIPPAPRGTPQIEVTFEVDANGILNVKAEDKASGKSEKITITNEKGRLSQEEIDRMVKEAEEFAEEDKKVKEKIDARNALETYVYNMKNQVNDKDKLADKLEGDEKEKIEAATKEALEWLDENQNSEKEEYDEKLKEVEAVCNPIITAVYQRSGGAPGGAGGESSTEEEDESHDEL", "test": "pull-down; 30 μg GST fusion or GST on Glutathione Sepharose 4B beads; 30 μg purified BiP1 or BiP3 with 1 mM ATP in 1 mL binding buffer (20 mM Hepes pH 6.8, 100 mM KCl, 5 mM MgCl2, 0.1% NP-40, 2% glycerol, 1 mM DTT, 1 mM EDTA), 4°C, 2 h; anti-His blot", "conditions": "both partners purified"}},
  "data": [
    {"binder": "recombinant TMS1 DnaJ domain with a GST tag (domain or fragment, Arabidopsis thaliana, UniProt Q9SR96 27-80, looked up, DnaJ domain of TMS1 (AtERdj3A), Arabidopsis thaliana, 54 amino acid residues, 27-80 aa in TMS1; Cloned into pGEX4T-1 (EcoRI/XhoI); also called GST-DnaJ; source: E. coli BL21, purified, dialyzed) DPYKVLGVSKDAKQREIQKAFHKQSLKYHPDKNKDKGAQEKFAEINNAYEILSD", "values": [
      {"measurement": "binding result", "setting": "[1]", "result": "binds"},
      {"measurement": "binding result", "setting": "[2]", "result": "binds"}
    ]}
  ]
}
